Biological target: human recombinant SNAP25 (Synaptosomal Associated Protein 25) (human), P60880
Assay: SPR

Chain of human recombinant SNAP25 (Synaptosomal Associated Protein 25) (human), P60880 (P60880 whole entry): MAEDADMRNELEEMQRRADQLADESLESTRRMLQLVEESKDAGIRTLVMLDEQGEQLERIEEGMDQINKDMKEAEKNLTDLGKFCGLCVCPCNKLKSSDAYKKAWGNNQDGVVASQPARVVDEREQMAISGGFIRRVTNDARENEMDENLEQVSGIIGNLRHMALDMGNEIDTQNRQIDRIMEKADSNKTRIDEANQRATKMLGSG

Kd: 15 nM
B1: Bovine Type VI Collagen (complex)
chain 1: not shown
chain 2: QQQEVISPGPSDRNSCPEKADCPVHVYFVLDTSESITMQSPTDSLLYHMQQFVLQFISQLQDELYLDQVALSWRYGGLHFSDLVEVFSPPGSDRASFTKSLQSISSFRRGTFTDCMLANMTQEVRRHVGKGVVNFAVVITDGHVTGSPCGGIKLQAERAREEGIRLFAVPPNLKLNEQGLRDIANTPHELYRNNYATMRPDSTEIDQDTINRIIKVMKHEAYGECYKVSCLEIPGPPGPKGYRGQKGAKGNMGEPGEPGQKGRQGDPGIEGPIGFPGPKGVPGFKGEKGEFGADGRKGAPGLAGKNGTDGQKGKLGRIGPPGCKGDTGDRGPDGYVGEAGSPGERGDQGSKGDPGRPGRRGPPGENGAKGSKGYQGNNGAPGSPGLKGAKGGPGPRGPKGEPGRRGDPGTKGGPGSDGPKGEKGDPGPEGPRGLAGEVGNKGAKANRGLPGPRGPQGTVGEPGKQGSRGDPGDAGPRGDSGQPGPKGDPGRPGFSYPGPRGAPGDKGEPGPPGPEGGRGDFGSKGEPGRKGQKGEPADPGPPGEPGPRGQRGAPGPEGEPGPPGDPGLTECDVMTYVRETCGCCDCEKRCGALDVVFVIDSSESIGYTNFTLEKNFVINVVNRLGAIAKDPKSETGTRVGVVQYSHEGTFEAIQLDDERIDSLSSFKEAVKNLEWIAGGTWTPSALKFAYNKLIKESRRQKTRVFAVVITDGRHDPRDDDLNLRALCNHEVTVTAIGIGDMFHEKHESENLYSIACDKPQQVRNMTLFSDLVAEKFIDDMEDVLCPDPQIVCPDLPCQTELYVAQCTQRPVDIVFLLDGSERLGEQNFHKVRRFVEEVSRRLTLARKDDDPLNARVALLQFGGPREQQVAFPLTSNLTVIQEALASARYLNSFSHVGTGIVQAINQVVQGARAGARRHAELSFVFLTDGVTGNDSLDEAVHSMRKQNVVPTVVAVGSDVDTDVLSKISLGDPAAVFREKDYDSLAQPGFFDRFIRWIC
chain 3: not shown

— article PMC11429891
